The target in assay [1] is HLA-A*68:02. The assay can be described thus: IEDB peptide-MHC binding, purified MHC/competitive/fluorescence; filed as Kd, often an IC50 or EC50 that approximates it; ≥ and ≤ were set here for values at or beyond the usual limits of such assays.
Assay [2] addresses HLA-B*15:01. As to the kind of experiment: IEDB peptide-MHC binding, purified MHC/direct/fluorescence; filed as Kd, often an IC50 or EC50 that approximates it; ≥ and ≤ were set here for values at or beyond the usual limits of such assays. The conditions noted are these: source organism: Orthohantavirus andesense.
In assay [3] the target is HLA-B*46:01. Described as above. The note with it: source organism: Orthohantavirus andesense.
In another assay the target is HLA-B*08:01. Described as above. The conditions noted are these: source organism: Hantavirus Monongahela-3.
The target in another assay is HLA-A*01:01. Described as above. The note with it: source organism: Orthohantavirus andesense.
Assay [4] addresses HLA-A*69:01. Described as above. The note with it: source organism: Orthohantavirus andesense.
A further assay has as its target HLA-B*44:02. The assay is described as above. The conditions noted are these: source organism: Orthohantavirus andesense.
The target in assay [5] is HLA-A*24:03. Described as above. The conditions noted are these: source organism: Limestone Canyon virus.
The target in assay [6] is HLA-A*68:02. Described as above. The note with it: source organism: Limestone Canyon virus.
Assay [7] concerns the target HLA-A*02:19. The assay is described as above.
The target in assay [8] is HLA-B*18:01. Described as above. The conditions noted are these: source organism: Orthohantavirus andesense.
For a further assay, the target named is HLA-A*31:01. The assay is described as above. The note with it: source organism: Orthohantavirus andesense.
Assay [9] addresses HLA-A*02:12. The description is as above.
Assay [10] concerns the target HLA-B*57:01. The assay is described as above. The note with it: source organism: Orthohantavirus andesense.
In a further assay the target is HLA-B*40:01. Described as above. The conditions noted are these: source organism: Orthohantavirus andesense.
In another assay the target is HLA-A*23:01. The description is as above. The note with it: source organism: Limestone Canyon virus.
In the next assay the target is HLA-A*11:01. The description is as above. The note with it: source organism: Orthohantavirus andesense.
Another assay has as its target HLA-A*29:02. Described as above. The note with it: source organism: Orthohantavirus andesense.
In assay [11] the target is HLA-A*02:01. The description is as above. The conditions noted are these: source organism: Orthohantavirus andesense.
The target of the next assay is HLA-B*07:02. The assay is described as above. The note with it: source organism: Orthohantavirus andesense.
The next assay deals with HLA-B*27:05. Described as above. The note with it: source organism: Orthohantavirus andesense.
For another assay, the target named is HLA-B*48:01. The assay is described as above. The conditions noted are these: source organism: Orthohantavirus andesense.
In another assay the target is HLA-B*58:01. The description is as above. The conditions noted are these: source organism: Orthohantavirus andesense.
The next assay addresses HLA-A*03:01. The assay is described as above.
A further assay addresses HLA-B*39:01. As to the kind of experiment: IEDB peptide-MHC binding, purified MHC/competitive/fluorescence; filed as Kd, often an IC50 or EC50 that approximates it; ≥ and ≤ were set here for values at or beyond the usual limits of such assays.
In another assay the target is HLA-A*26:01. The description is as above.
A further assay deals with HLA-B*27:03. The description is as above.
A further assay deals with HLA-B*15:17. The assay is described as above.
For another assay, the target named is HLA-A*02:16. The assay can be described thus: IEDB peptide-MHC binding, purified MHC/direct/fluorescence; filed as Kd, often an IC50 or EC50 that approximates it; ≥ and ≤ were set here for values at or beyond the usual limits of such assays. The note with it: source organism: Choclo virus.
In assay [12] the target is HLA-A*02:03. Described as above. The conditions noted are these: source organism: Choclo virus.
The target of the next assay is HLA-A*02:11. The description is as above. The note with it: source organism: Choclo virus.
Assay [13] deals with HLA-B*46:01. As to the kind of experiment: IEDB peptide-MHC binding, purified MHC/competitive/fluorescence; filed as Kd, often an IC50 or EC50 that approximates it; ≥ and ≤ were set here for values at or beyond the usual limits of such assays.
The target in assay [14] is HLA-A*69:01. Described as above.
The target in assay [15] is HLA-A*24:03. The assay is described as above.
The target in assay [16] is HLA-B*18:01. The assay is described as above.
The next assay deals with HLA-B*51:01. The assay is described as above.
In assay [17] the target is HLA-B*57:01. The description is as above.
Assay [18] addresses HLA-A*02:01. The description is as above.
Assay [19] addresses HLA-B*15:01. The assay is described as above. The note with it: source organism: Vibrio vulnificus YJ016.
For assay [20], the target named is HLA-A*02:19. The assay is described as above. The conditions noted are these: source organism: Vibrio vulnificus YJ016.
Assay [21] concerns the target HLA-A*02:12. The assay is described as above. The note with it: source organism: Vibrio vulnificus YJ016.
Assay [22] addresses HLA-A*02:03. The assay is described as above. The conditions noted are these: source organism: Vibrio vulnificus YJ016.
[23] abbreviates: source organism: Vibrio vulnificus YJ016.
[24] abbreviates: source organism: Limestone Canyon virus.
The mark [25] stands for this setting: source organism: Four Corners hantavirus.

pKd: −log10 of the molar value.

Consider ESAEVEVYV, for which, in the assay with HLA-A*68:02 [1] (setting [23]), the pKd is not below 10.00.

Regarding EKLKKKSAF, the pKd with HLA-B*15:01 [2] is not above 4.70; with HLA-B*46:01 [3], not above 4.70; in the assay with HLA-B*08:01, not above 5.30; with HLA-A*01:01, not above 4.70; with HLA-A*69:01 [4], not above 4.70; in the assay with HLA-B*44:02, not above 4.70. Further, the negative logarithm of the Kd (pKd) in the assay with HLA-A*24:03 [5], with HLA-A*68:02 [6], with HLA-A*02:19 [7] (setting [24]), in the assay with HLA-B*18:01 [8], in the assay with HLA-A*31:01 and with HLA-A*02:12 [9] (setting [24]) was not above 4.70 each time. Further, the pKd with HLA-B*57:01 [10], in the assay with HLA-B*40:01, with HLA-A*23:01, with HLA-A*11:01, with HLA-A*29:02 and with HLA-A*02:01 [11] was not above 4.70 each time. Also, the negative-log Kd (pKd) with HLA-B*07:02, with HLA-B*27:05, in the assay with HLA-B*48:01, in the assay with HLA-B*58:01, with HLA-A*03:01 (source organism: Orthohantavirus andesense) and in the assay with HLA-B*39:01 (setting [25]) was not above 4.70 throughout. Moreover, the negative-log Kd (pKd) with HLA-A*26:01 (setting [25]), in the assay with HLA-B*27:03 (setting [25]) and with HLA-B*15:17 (setting [25]) was not above 4.70 each time.

Turning to HWMDATFNI, the negative-log Kd (pKd) in the assay with HLA-A*02:19 [7] (source organism: Choclo virus), in the assay with HLA-A*02:12 [9] (source organism: Choclo virus), with HLA-A*02:16, in the assay with HLA-A*02:03 [12], in the assay with HLA-A*02:11 and in the assay with HLA-A*03:01 (source organism: Choclo virus) was not above 4.70 throughout. Also, the pKd is not above 4.70 in the assay with HLA-B*46:01 [13] (source organism: Choclo virus); not above 4.70 with HLA-A*69:01 [14] (source organism: Choclo virus); not below 10.00 in the assay with HLA-A*24:03 [15] (source organism: Choclo virus); not above 4.70 with HLA-B*39:01 (source organism: Choclo virus); not above 4.70 with HLA-A*26:01 (source organism: Choclo virus); not above 4.70 with HLA-B*18:01 [16] (source organism: Choclo virus). Also, the pKd with HLA-B*51:01 (source organism: Choclo virus), in the assay with HLA-B*57:01 [17] (source organism: Choclo virus), with HLA-B*27:03 (source organism: Choclo virus), with HLA-A*02:01 [18] (source organism: Choclo virus) and with HLA-B*15:17 (source organism: Choclo virus) was not above 4.70 each time.

For GMWCVLASR, the pKd in the assay with HLA-B*15:01 [19], with HLA-B*46:01 [13] (setting [23]), in the assay with HLA-A*69:01 [14] (setting [23]), with HLA-A*24:03 [15] (setting [23]), with HLA-A*68:02 [1] (setting [23]) and with HLA-B*39:01 (setting [23]) was not above 4.70 each time. The negative logarithm of the Kd (pKd) is not above 4.70 in the assay with HLA-A*02:19 [20]; not above 4.70 with HLA-A*26:01 (setting [23]); not above 4.70 in the assay with HLA-B*18:01 [16] (setting [23]); not above 4.70 with HLA-B*51:01 (setting [23]); 6.03 with HLA-A*02:12 [21]; not above 4.70 with HLA-B*57:01 [17] (setting [23]). The negative logarithm of the Kd (pKd) in the assay with HLA-B*27:03 (setting [23]), in the assay with HLA-A*02:03 [22], with HLA-A*02:01 [18] (setting [23]) and with HLA-B*15:17 (setting [23]) was not above 4.70 each time.

Consider STYWLMAGL, for which, in the assay with HLA-A*68:02 [1] (source organism: Yersinia pestis Nepal516), the negative-log Kd (pKd) was 9.30.
